Each block holds one substance with its values, some of them ahead of it.
Experiments:
ALK6 [1] = experiment: solid-phase binding assay, half max read from the curve (FIG. 8)
ALK6 [2] = experiment: solid-phase binding assay, MuSK construct immobilized, ALK6 titrated, pH 6.0; given as Half Max
ALK6 [3] = experiment: solid-phase binding assay, saturation measured at 100 nM ALK6, pH 7.4
ALK6 [4] = experiment: solid-phase binding assay, saturation measured at 100 nM ALK6, pH 6.0
ALK6 [5] = experiment: solid-phase binding assay, MuSK construct immobilized, ALK6 titrated, pH 7.4; given as Half Max
ALK6 [6] = experiment: solid-phase binding assay, pH 6.0 (FIG. 12)
ALK6 [7] = experiment: solid-phase binding assay, pH 7.4 (FIG. 12)
ALK6 [8] = experiment: solid-phase binding assay, MuSK construct immobilized, ALK6 at 100 nM (FIG. 8)
ALK6 [9] = experiment: solid-phase binding assay, MuSK immobilized, ALK6 at 100 nM (FIG. 7)
ALK6 [10] = experiment: solid-phase binding assay, half max read from the curve (FIG. 10)
ALK6 [11] = experiment: solid-phase binding assay, several assays, ALK6 at 100 nM
ALK6 [12] = experiment: solid-phase binding assay, pH 7.4 (FIG. 13)
ALK6 [13] = experiment: solid-phase binding assay, pH 6.0 (FIG. 13)
ALK6 [14] = experiment: solid-phase binding assay, half max read from the curve (FIG. 9)
ALK6 [15] = experiment: solid-phase binding assay, isolated domain immobilized, ALK6 titrated (FIG. 9)

isolated MuSK Ig2 domain, His-tagged (receptor), sequence (Q62838 121-205): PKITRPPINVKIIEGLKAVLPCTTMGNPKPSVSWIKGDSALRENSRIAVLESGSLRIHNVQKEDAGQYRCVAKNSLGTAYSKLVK
MuSK Ig1-Ig2 only construct, His-tagged (receptor), sequence (Q62838 22-205): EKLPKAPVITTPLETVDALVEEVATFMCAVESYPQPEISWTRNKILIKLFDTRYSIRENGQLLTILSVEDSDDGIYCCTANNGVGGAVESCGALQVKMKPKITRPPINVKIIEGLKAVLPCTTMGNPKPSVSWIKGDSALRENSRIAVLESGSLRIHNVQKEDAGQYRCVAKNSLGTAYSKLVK
ALK6, sequence (O00238 14-126): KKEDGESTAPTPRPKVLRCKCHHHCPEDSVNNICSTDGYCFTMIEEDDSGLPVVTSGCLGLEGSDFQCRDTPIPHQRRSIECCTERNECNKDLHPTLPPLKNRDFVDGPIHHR

EC50 (ALK6 [1]): 6.25 nM
EC50 (ALK6 [2]): 15.9 nM
Saturation (%) (ALK6 [3]): 21%
Saturation (%) (ALK6 [4]): 99%
EC50 (ALK6 [5]): 18.2 nM
EC50 (ALK6 [6]): 6.25 nM
absorbance (absorbance (450 nm)) (ALK6 [6]): 3
EC50 (ALK6 [7]): 25 nM
absorbance (absorbance (450 nm)) (ALK6 [7]): 0.75
absorbance at 100 nM ALK6 (absorbance (450 nm)) (ALK6 [8]): 3
Substance: MuSK Ig1-Ig2 only construct, His-tagged (receptor)

absorbance at 100 nM ALK6 (absorbance (450 nm)) (ALK6 [9]): 0.15
Substance: MuSK ectodomain with Ig2 deletion (ΔIg2), His-tagged (receptor)

EC50 (ALK6 [2]): 13.7 nM
EC50 (ALK6 [10]): 12.5 nM
Saturation (%) (ALK6 [3]): 99%
Saturation (%) (ALK6 [4]): 100%
absorbance at 100 nM ALK6 (absorbance (450 nm)) (ALK6 [11]): > 3
EC50 (ALK6 [5]): 9.1 nM
EC50 (ALK6 [12]): 6.5 nM
maximum absorbance (absorbance (450 nm)) (ALK6 [12]): 4
EC50 (ALK6 [13]): 6.5 nM
maximum absorbance (absorbance (450 nm)) (ALK6 [13]): 4
Substance: MuSK ectodomain with an Ig1 deletion (ΔIg1), His-tagged (receptor)

EC50 (ALK6 [2]): 23.6 nM
Saturation (%) (ALK6 [4]): 83%
EC50 (ALK6 [14]): 6.25 nM
absorbance (absorbance (450 nm)) (ALK6 [15]): 1.8
Substance: isolated MuSK Ig2 domain, His-tagged (receptor)
